# Reference: article doi:10.1101/2021.02.17.431492 (bioRxiv, 2021)
# Biological target: monomeric SARS-CoV-2 receptor binding domain (RBD) (SARS-CoV-2, UniProt P0DTC2)
# Test: ELISA
binder,measurement,value
"DH1041 (ACE2 binding site-targeting RBD neutralizing antibody) (antibody, V domains shown) VH: EVQLVESGGGLVQPGGSLRLSCAASGVTFSSYWMSWVRQAPGKGLEWVANIRQDGSEKYSVDSVKGRFTISRDNAKNSLYLQMNSLRAEDTAVYYCARARRADNSGYYGFHFDCWGQGTLVTVSS VL: QSVLTQPPSVSGAPGQRVTISCTGSSSNIGAGYDVHWYQQLPGTAPKLLIYGNNNRPSGVPDRFSDSKSGTSASLAITRLQAEDEADYYCQSYDSSLSGWVFGGGTKLTVL",binding result,binds
